The source of these data is PMC5389665.

This experiment concerns the target TerL P74-26 nuclease domain (residues 256–485) (Thermus phage P74-26). In words: SEC.

“TerL P74-26 nuclease domain (residues 256–485) (domain or fragment)” yielded a stoichiometry N of 2.
